Numbered stars: 1 amine (or outer) side, 2 acyl side, 3 side chain; on linkers, the order of the positions; unused ones are H or OH. Bridge positions count the residues as written; N and C are the ends. Side chains are listed from the residue outwards. Ends that are not written are not given here. * marks the point of attachment. C20 diacid = O=C(O)CCCCCCCCCCCCCCCCCCC(=O)*; γGlu = O=C(O)[C@H](CCC(=O)[*:2])N[*:1]
T1: rat calcitonin receptor (rat, UniProt P32214 25-516)
T1 construct: whole, on cells; Membranes of transiently transfected BHK tk'ts 13 cells (Assay VIII); also called rCTR
T1 sequence (looked up): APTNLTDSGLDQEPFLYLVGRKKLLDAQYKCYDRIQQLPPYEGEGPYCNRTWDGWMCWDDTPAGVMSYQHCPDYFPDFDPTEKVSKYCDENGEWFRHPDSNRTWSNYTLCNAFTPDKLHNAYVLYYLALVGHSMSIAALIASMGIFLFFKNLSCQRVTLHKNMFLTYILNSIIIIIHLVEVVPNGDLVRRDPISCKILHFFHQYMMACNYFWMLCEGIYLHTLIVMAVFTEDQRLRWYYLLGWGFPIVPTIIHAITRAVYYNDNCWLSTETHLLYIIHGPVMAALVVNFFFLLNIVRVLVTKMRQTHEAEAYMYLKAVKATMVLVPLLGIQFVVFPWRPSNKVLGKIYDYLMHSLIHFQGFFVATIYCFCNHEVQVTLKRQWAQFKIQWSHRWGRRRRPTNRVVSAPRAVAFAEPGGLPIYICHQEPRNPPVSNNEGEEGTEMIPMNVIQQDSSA

T2: rat amylin receptor (rat calcitonin receptor + rat RAMP 3) (rat, UniProt P32214 25-516; Q9JJ73 23-147)
T2 construct: whole, on cells; Membranes of transiently transfected BHK tk'ts 13 cells (Assay VI); also called rAmylin-R; rat amylin 3(a) receptor
T2 sequence (looked up) 1: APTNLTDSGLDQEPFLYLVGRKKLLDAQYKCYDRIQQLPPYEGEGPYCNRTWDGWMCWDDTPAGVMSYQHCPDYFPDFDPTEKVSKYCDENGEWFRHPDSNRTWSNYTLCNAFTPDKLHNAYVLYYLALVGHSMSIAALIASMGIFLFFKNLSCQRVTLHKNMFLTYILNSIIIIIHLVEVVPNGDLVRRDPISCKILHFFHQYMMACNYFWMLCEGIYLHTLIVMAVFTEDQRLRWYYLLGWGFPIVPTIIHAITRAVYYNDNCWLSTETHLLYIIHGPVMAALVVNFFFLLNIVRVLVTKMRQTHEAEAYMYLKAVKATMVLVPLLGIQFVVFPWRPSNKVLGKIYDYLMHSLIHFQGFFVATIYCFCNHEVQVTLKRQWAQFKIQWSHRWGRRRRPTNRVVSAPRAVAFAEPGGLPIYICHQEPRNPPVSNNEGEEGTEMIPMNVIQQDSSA
T2 sequence (looked up) 2: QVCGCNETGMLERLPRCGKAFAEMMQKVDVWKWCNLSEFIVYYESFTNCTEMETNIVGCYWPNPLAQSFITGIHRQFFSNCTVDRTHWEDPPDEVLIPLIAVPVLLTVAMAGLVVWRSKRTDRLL

T3: human calcitonin receptor (human, UniProt P30988 25-474)
T3 construct: whole, on cells; Membranes of a stably transfected BHK cell line (Assay VII); also called hCTR; hCT
T3 sequence (looked up): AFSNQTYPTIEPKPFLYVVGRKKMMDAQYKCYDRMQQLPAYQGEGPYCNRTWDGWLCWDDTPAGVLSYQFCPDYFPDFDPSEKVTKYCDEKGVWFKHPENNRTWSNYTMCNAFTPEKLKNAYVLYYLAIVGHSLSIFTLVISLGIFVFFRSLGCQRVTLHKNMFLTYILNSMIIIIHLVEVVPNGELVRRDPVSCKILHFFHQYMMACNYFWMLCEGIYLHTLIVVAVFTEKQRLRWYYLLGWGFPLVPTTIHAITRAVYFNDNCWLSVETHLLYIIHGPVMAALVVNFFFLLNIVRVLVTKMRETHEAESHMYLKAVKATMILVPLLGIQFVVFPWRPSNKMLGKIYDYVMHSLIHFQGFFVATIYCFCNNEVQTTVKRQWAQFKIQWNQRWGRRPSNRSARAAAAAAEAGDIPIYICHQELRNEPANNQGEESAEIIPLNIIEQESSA


Experiments:
rat calcitonin receptor [1] = biological target: T1, rat calcitonin receptor; test: ratio IC50 rat calcitonin receptor / IC50 rat amylin receptor (reference)
[2] = biological target: T2, rat amylin receptor (rat calcitonin …); test: SPA competition with 125I-rat amylin, membranes of BHK cells with rat calcitonin receptor + rat RAMP3 (Assay VI)
rat calcitonin receptor [3] = biological target: T1, rat calcitonin receptor; test: SPA competition with 125I-calcitonin, membranes of BHK cells with rat calcitonin receptor (Assay VIII)
[4] = biological target: T3, human calcitonin receptor; test: ratio IC50 human calcitonin receptor / IC50 human amylin receptor (reference)
In short: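 Competition binding by SPA uses membrane preparations (35 ng/μL final) in pH 7.4 Hepes buffer with 1 mM CaCl2 and 5 mM MgCl₂. Incubation lasts 120 min at 25° C, and IC₅₀ comes from one-site fitting.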

Row | Ratio rCT/rAmylin binding (rat calcitonin receptor [1]) | IC50 [2] | IC50 (rat calcitonin receptor [3]) | Ratio hCT/hAmylin binding [4] | Binder
1 | 159 | 3.14 nM | 498 nM | 29.1 | K([γGlu-γGlu-C20 diacid])CNTATCATQRLAEFLRHSSPNFGAIPSSTNVGHETY-NH2 (disulfide 2-7; N-terminus assumed; SMILES CC[C@H](C)[C@H](NC(=O)[C@H](C)NC(=O)CNC(=O)[C@H](Cc1ccccc1)NC(=O)[C@H](CC(N)=O)NC(=O)[C@@H]1CCCN1C(=O)[C@H](CO)NC(=O)[C@H](CO)NC(=O)[C@H](Cc1c[nH]cn1)NC(=O)[C@H](CCCNC(=N)N)NC(=O)[C@H](CC(C)C)NC(=O)[C@H](Cc1ccccc1)NC(=O)[C@H](CCC(=O)O)NC(=O)[C@H](C)NC(=O)[C@H](CC(C)C)NC(=O)[C@H](CCCNC(=N)N)NC(=O)[C@H](CCC(N)=O)NC(=O)[C@@H](NC(=O)[C@H](C)NC(=O)[C@@H]1CSSC[C@H](NC(=O)[C@@H](N)CCCCNC(=O)CC[C@H](NC(=O)CC[C@H](NC(=O)CCCCCCCCCCCCCCCCCCC(=O)O)C(=O)O)C(=O)O)C(=O)N[C@@H](CC(N)=O)C(=O)N[C@@H]([C@@H](C)O)C(=O)N[C@@H](C)C(=O)N[C@@H]([C@@H](C)O)C(=O)N1)[C@@H](C)O)C(=O)N1CCC[C@H]1C(=O)N[C@@H](CO)C(=O)N[C@@H](CO)C(=O)N[C@H](C(=O)N[C@@H](CC(N)=O)C(=O)N[C@H](C(=O)NCC(=O)N[C@@H](Cc1c[nH]cn1)C(=O)N[C@@H](CCC(=O)O)C(=O)N[C@H](C(=O)N[C@@H](Cc1ccc(O)cc1)C(N)=O)[C@@H](C)O)C(C)C)[C@@H](C)O)
2 | 74.7 | 0.449 nM | 33.5 nM | 22.6 | K([γGlu-γGlu-C20 diacid])CNTATCATQRLAEFLRHSSPNFGAILSSTPVGPETY-NH2 (disulfide 2-7 (inferred))
3 | 156 | 0.668 nM | 104 nM | 145 | K([γGlu-γGlu-C20 diacid])CNTATCATQRLAHFLRHSSPNFGAIPSSTNVGSNTY-NH2 (disulfide 2-7; N-terminus assumed; SMILES CC[C@H](C)[C@H](NC(=O)[C@H](C)NC(=O)CNC(=O)[C@H](Cc1ccccc1)NC(=O)[C@H](CC(N)=O)NC(=O)[C@@H]1CCCN1C(=O)[C@H](CO)NC(=O)[C@H](CO)NC(=O)[C@H](Cc1c[nH]cn1)NC(=O)[C@H](CCCNC(=N)N)NC(=O)[C@H](CC(C)C)NC(=O)[C@H](Cc1ccccc1)NC(=O)[C@H](Cc1c[nH]cn1)NC(=O)[C@H](C)NC(=O)[C@H](CC(C)C)NC(=O)[C@H](CCCNC(=N)N)NC(=O)[C@H](CCC(N)=O)NC(=O)[C@@H](NC(=O)[C@H](C)NC(=O)[C@@H]1CSSC[C@H](NC(=O)[C@@H](N)CCCCNC(=O)CC[C@H](NC(=O)CC[C@H](NC(=O)CCCCCCCCCCCCCCCCCCC(=O)O)C(=O)O)C(=O)O)C(=O)N[C@@H](CC(N)=O)C(=O)N[C@@H]([C@@H](C)O)C(=O)N[C@@H](C)C(=O)N[C@@H]([C@@H](C)O)C(=O)N1)[C@@H](C)O)C(=O)N1CCC[C@H]1C(=O)N[C@@H](CO)C(=O)N[C@@H](CO)C(=O)N[C@H](C(=O)N[C@@H](CC(N)=O)C(=O)N[C@H](C(=O)NCC(=O)N[C@@H](CO)C(=O)N[C@@H](CC(N)=O)C(=O)N[C@H](C(=O)N[C@@H](Cc1ccc(O)cc1)C(N)=O)[C@@H](C)O)C(C)C)[C@@H](C)O, also called compound 92)
4 | 88.5 | 0.182 nM | 16.1 nM | 17.6 | K([γGlu-γGlu-C20 diacid])CNTATCATQRLAEFLRHSSPNFGAIPSSTNVGPETY-NH2 (disulfide 2-7; N-terminus assumed; SMILES CC[C@H](C)[C@H](NC(=O)[C@H](C)NC(=O)CNC(=O)[C@H](Cc1ccccc1)NC(=O)[C@H](CC(N)=O)NC(=O)[C@@H]1CCCN1C(=O)[C@H](CO)NC(=O)[C@H](CO)NC(=O)[C@H](Cc1c[nH]cn1)NC(=O)[C@H](CCCNC(=N)N)NC(=O)[C@H](CC(C)C)NC(=O)[C@H](Cc1ccccc1)NC(=O)[C@H](CCC(=O)O)NC(=O)[C@H](C)NC(=O)[C@H](CC(C)C)NC(=O)[C@H](CCCNC(=N)N)NC(=O)[C@H](CCC(N)=O)NC(=O)[C@@H](NC(=O)[C@H](C)NC(=O)[C@@H]1CSSC[C@H](NC(=O)[C@@H](N)CCCCNC(=O)CC[C@H](NC(=O)CC[C@H](NC(=O)CCCCCCCCCCCCCCCCCCC(=O)O)C(=O)O)C(=O)O)C(=O)N[C@@H](CC(N)=O)C(=O)N[C@@H]([C@@H](C)O)C(=O)N[C@@H](C)C(=O)N[C@@H]([C@@H](C)O)C(=O)N1)[C@@H](C)O)C(=O)N1CCC[C@H]1C(=O)N[C@@H](CO)C(=O)N[C@@H](CO)C(=O)N[C@H](C(=O)N[C@@H](CC(N)=O)C(=O)N[C@H](C(=O)NCC(=O)N1CCC[C@H]1C(=O)N[C@@H](CCC(=O)O)C(=O)N[C@H](C(=O)N[C@@H](Cc1ccc(O)cc1)C(N)=O)[C@@H](C)O)C(C)C)[C@@H](C)O)
5 | 113 | 0.339 nM | 38.3 nM | 53.6 | K([γGlu-γGlu-C20 diacid])CNTATCATQRLAEFLRHSSPNFGAIPSSTNVGPRTY-NH2 (disulfide 2-7; N-terminus assumed; SMILES CC[C@H](C)[C@H](NC(=O)[C@H](C)NC(=O)CNC(=O)[C@H](Cc1ccccc1)NC(=O)[C@H](CC(N)=O)NC(=O)[C@@H]1CCCN1C(=O)[C@H](CO)NC(=O)[C@H](CO)NC(=O)[C@H](Cc1c[nH]cn1)NC(=O)[C@H](CCCNC(=N)N)NC(=O)[C@H](CC(C)C)NC(=O)[C@H](Cc1ccccc1)NC(=O)[C@H](CCC(=O)O)NC(=O)[C@H](C)NC(=O)[C@H](CC(C)C)NC(=O)[C@H](CCCNC(=N)N)NC(=O)[C@H](CCC(N)=O)NC(=O)[C@@H](NC(=O)[C@H](C)NC(=O)[C@@H]1CSSC[C@H](NC(=O)[C@@H](N)CCCCNC(=O)CC[C@H](NC(=O)CC[C@H](NC(=O)CCCCCCCCCCCCCCCCCCC(=O)O)C(=O)O)C(=O)O)C(=O)N[C@@H](CC(N)=O)C(=O)N[C@@H]([C@@H](C)O)C(=O)N[C@@H](C)C(=O)N[C@@H]([C@@H](C)O)C(=O)N1)[C@@H](C)O)C(=O)N1CCC[C@H]1C(=O)N[C@@H](CO)C(=O)N[C@@H](CO)C(=O)N[C@H](C(=O)N[C@@H](CC(N)=O)C(=O)N[C@H](C(=O)NCC(=O)N1CCC[C@H]1C(=O)N[C@@H](CCCNC(=N)N)C(=O)N[C@H](C(=O)N[C@@H](Cc1ccc(O)cc1)C(N)=O)[C@@H](C)O)C(C)C)[C@@H](C)O, also called compound 110)
